The values below come from patent US20250361299A1 (published 2025).

The target in test [1] is T1, Recombinant human EGFR (human, UniProt P00533 25-645). In words: ELISA; without uPA.
Test [2] deals with T2, Human CD3 protein (human, UniProt P07766 23-126).
T2 chain: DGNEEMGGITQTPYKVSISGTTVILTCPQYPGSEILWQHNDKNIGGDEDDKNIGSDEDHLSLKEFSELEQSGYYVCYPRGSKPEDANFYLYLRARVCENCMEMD
In words: ELISA; without uPA.

Test [3] concerns the target T1, Recombinant human EGFR. In words: ELISA.
Test [4] has as its target T2, Human CD3 protein. Kind of test: ELISA.
In test [5] the target is T1, Recombinant human EGFR. In words: ELISA. The source holds these as a separate data set.
Test [6] concerns the target T2, Human CD3 protein. Kind of test: ELISA.
In test [7] the target is T1, Recombinant human EGFR. Kind of test: ELISA. The source holds these as a separate data set.
Test [8] has as its target T2, Human CD3 protein. In words: ELISA.

B1: 1.6.1M-Pa proBiTE (bispecific antibody)
heavy: QDGNEEMGGGSQDGNEEMGGIGGGSGGGGSGLSGRSDNHGGGGSEVQLVESGGGLVQPGGSLRLSCAASGFTFNTYAMNWVRQAPGKGLEWVARIRSKYNNYATYYADSVKGRFTISRDDSKNTLYLQMNSLRAEDTAVYYCARHGNFGSSYVSYFAYWGQGTTVTVSSASTKGPSVFPLAPSSKSTSGGTAALGCLVKDYFPEPVTVSWNSGALTSGVHTFPAVLQSSGLYSLSSVVTVPSSSLGTQTYICNVNHKPSNTKVDKKVEPKSCPPCPAPEAAGAPSVFLFPPKPKDTLMISRTPEVTCVVVDVSHEDPEVKFNWYVDGVEVHNAKTKPREEQYNSTYRVVSVLTVLHQDWLNGKEYKCKVSNKALPAPIEKTISKAKGQPREPQVYTLPPSRDELTKNQVSLLCLVKGFYPSDIAVEWESNGQPENNYKTTPPVLDSDGSFFLHSKLTVDKSRWQQGNVFSCSVMHEALHNHYTQKSLSLSPGK
light: QVQLQESGPGLVKPSETLSLTCTVSGGSVSSGDYYWTWIRQSPGKGLEWIGHIYYSGNTNYNPSLKSRLTISIDTSKTQFSLKLSSVTAADTAIYYCVRDRVTGAFDIWGQGTMVTVSSGGGGSGGGGSGGGGSGGGGSDIQMTQSPSSLSASVGDRVTITCQASQDISNYLNWYQQKPGKAPKLLIYDASNLETGVPSRFSGSGSGTDFTFTISSLQPEDIATYFCQHFDHLPLAFGGGTKVEIKGGGGSGGGGSGGGGSGGGGSEIVVTQSPATLSVSPGERATLSCRSSTGAVTTSNYANWVQQKPGQAPRGLIGGANKRAPGVPARFSGSLSGDEATLTISSLQSEDFAVYYCALWYSNLWVFGQGTKLEIKRTVAAPSVFIFPPSDEQLKSGTASVVCLLNNFYPREAKVQWKVDNALQSGNSQESVTEQDSKDSTYSLSSTLTLSKADYEKHKVYACEVTHQGLSSPVTKSFNRGECPPCPAPEAAGAPSVFLFPPKPKDTLMISRTPEVTCVVVDVSHEDPEVKFNWYVDGVEVHNAKTKPREEQYNSTYRVVSVLTVLHQDWLNGKEYKCKVSNKALPAPIEKTISKAKGQPREPQVYTLPPSRDELTKNQVSLLCLVKGFYPSDIAVEWESNGQPENNYKTTPPVLDSDGSFFLHSKLTVDKSRWQQGNVFSCSVMHEALHNHYTQKSLSLSPGK
B1: the figures for the EC50 in the test with Recombinant human EGFR [1] and with Human CD3 protein [2] were 0.0154 µg/mL and 47.2 µg/mL, respectively.

B2: 1.6.1M-Pa-CTR (antibody)
chain 1: EVQLVESGGGLVQPGGSLRLSCAASGFTFNTYAMNWVRQAPGKGLEWVARIRSKYNNYATYYADSVKGRFTISRDDSKNTLYLQMNSLRAEDTAVYYCARHGNFGSSYVSYFAYWGQGTTVTVSSASTKGPSVFPLAPSSKSTSGGTAALGCLVKDYFPEPVTVSWNSGALTSGVHTFPAVLQSSGLYSLSSVVTVPSSSLGTQTYICNVNHKPSNTKVDKKVEPKSCPPCPAPEAAGAPSVFLFPPKPKDTLMISRTPEVTCVVVDVSHEDPEVKFNWYVDGVEVHNAKTKPREEQYNSTYRVVSVLTVLHQDWLNGKEYKCKVSNKALPAPIEKTISKAKGQPREPQVYTLPPSRDELTKNQVSLLCLVKGFYPSDIAVEWESNGQPENNYKTTPPVLDSDGSFFLHSKLTVDKSRWQQGNVFSCSVMHEALHNHYTQKSLSLSPGK
chain 2: QVQLQESGPGLVKPSETLSLTCTVSGGSVSSGDYYWTWIRQSPGKGLEWIGHIYYSGNTNYNPSLKSRLTISIDTSKTQFSLKLSSVTAADTAIYYCVRDRVTGAFDIWGQGTMVTVSSGGGGSGGGGSGGGGSGGGGSDIQMTQSPSSLSASVGDRVTITCQASQDISNYLNWYQQKPGKAPKLLIYDASNLETGVPSRFSGSGSGTDFTFTISSLQPEDIATYFCQHFDHLPLAFGGGTKVEIKGGGGSGGGGSGGGGSGGGGSEIVVTQSPATLSVSPGERATLSCRSSTGAVTTSNYANWVQQKPGQAPRGLIGGANKRAPGVPARFSGSLSGDEATLTISSLQSEDFAVYYCALWYSNLWVFGQGTKLEIKRTVAAPSVFIFPPSDEQLKSGTASVVCLLNNFYPREAKVQWKVDNALQSGNSQESVTEQDSKDSTYSLSSTLTLSKADYEKHKVYACEVTHQGLSSPVTKSFNRGECPPCPAPEAAGAPSVFLFPPKPKDTLMISRTPEVTCVVVDVSHEDPEVKFNWYVDGVEVHNAKTKPREEQYNSTYRVVSVLTVLHQDWLNGKEYKCKVSNKALPAPIEKTISKAKGQPREPQVYTLPPSRDELTKNQVSLLCLVKGFYPSDIAVEWESNGQPENNYKTTPPVLDSDGSFFLHSKLTVDKSRWQQGNVFSCSVMHEALHNHYTQKSLSLSPGK
On to B2, for which the EC50 with Recombinant human EGFR [3] was determined as 0.0264 µg/mL; with Human CD3 protein [4], 0.613 µg/mL.

B3: 1.6.1M-Pa-Noncleavable BiTE (bispecific antibody)
heavy: QDGNEEMGGGSQDGNEEMGGIGGGSGGGGSGLSGAGNHGGGGSEVQLVESGGGLVQPGGSLRLSCAASGFTFNTYAMNWVRQAPGKGLEWVARIRSKYNNYATYYADSVKGRFTISRDDSKNTLYLQMNSLRAEDTAVYYCARHGNFGSSYVSYFAYWGQGTTVTVSSASTKGPSVFPLAPSSKSTSGGTAALGCLVKDYFPEPVTVSWNSGALTSGVHTFPAVLQSSGLYSLSSVVTVPSSSLGTQTYICNVNHKPSNTKVDKKVEPKSCPPCPAPEAAGAPSVFLFPPKPKDTLMISRTPEVTCVVVDVSHEDPEVKFNWYVDGVEVHNAKTKPREEQYNSTYRVVSVLTVLHQDWLNGKEYKCKVSNKALPAPIEKTISKAKGQPREPQVYTLPPSRDELTKNQVSLLCLVKGFYPSDIAVEWESNGQPENNYKTTPPVLDSDGSFFLHSKLTVDKSRWQQGNVFSCSVMHEALHNHYTQKSLSLSPGK
light: QVQLQESGPGLVKPSETLSLTCTVSGGSVSSGDYYWTWIRQSPGKGLEWIGHIYYSGNTNYNPSLKSRLTISIDTSKTQFSLKLSSVTAADTAIYYCVRDRVTGAFDIWGQGTMVTVSSGGGGSGGGGSGGGGSGGGGSDIQMTQSPSSLSASVGDRVTITCQASQDISNYLNWYQQKPGKAPKLLIYDASNLETGVPSRFSGSGSGTDFTFTISSLQPEDIATYFCQHFDHLPLAFGGGTKVEIKGGGGSGGGGSGGGGSGGGGSEIVVTQSPATLSVSPGERATLSCRSSTGAVTTSNYANWVQQKPGQAPRGLIGGANKRAPGVPARFSGSLSGDEATLTISSLQSEDFAVYYCALWYSNLWVFGQGTKLEIKRTVAAPSVFIFPPSDEQLKSGTASVVCLLNNFYPREAKVQWKVDNALQSGNSQESVTEQDSKDSTYSLSSTLTLSKADYEKHKVYACEVTHQGLSSPVTKSFNRGECPPCPAPEAAGAPSVFLFPPKPKDTLMISRTPEVTCVVVDVSHEDPEVKFNWYVDGVEVHNAKTKPREEQYNSTYRVVSVLTVLHQDWLNGKEYKCKVSNKALPAPIEKTISKAKGQPREPQVYTLPPSRDELTKNQVSLLCLVKGFYPSDIAVEWESNGQPENNYKTTPPVLDSDGSFFLHSKLTVDKSRWQQGNVFSCSVMHEALHNHYTQKSLSLSPGK
Consider B3, for which the EC50 with Recombinant human EGFR [5] is 0.027 µg/mL; in the test with Human CD3 protein [6] it was approximately 99500 µg/mL.

B4: 1.6.1M-Pa-Unmask iBiTE (bispecific antibody)
heavy: EVQLVESGGGLVQPGGSLRLSCAASGFTFNTYAMNWVRQAPGKGLEWVARIRSKYNNYATYYADSVKGRFTISRDDSKNTLYLQMNSLRAEDTAVYYCARHGNFGSSYVSYFAYWGQGTTVTVSSASTKGPSVFPLAPSSKSTSGGTAALGCLVKDYFPEPVTVSWNSGALTSGVHTFPAVLQSSGLYSLSSVVTVPSSSLGTQTYICNVNHKPSNTKVDKKVEPKSCPPCPAPEAAGAPSVFLFPPKPKDTLMISRTPEVTCVVVDVSHEDPEVKFNWYVDGVEVHNAKTKPREEQYNSTYRVVSVLTVLHQDWLNGKEYKCKVSNKALPAPIEKTISKAKGQPREPQVYTLPPSRDELTKNQVSLLCLVKGFYPSDIAVEWESNGQPENNYKTTPPVLDSDGSFFLHSKLTVDKSRWQQGNVFSCSVMHEALHNHYTQKSLSLSPGK
light: QVQLQESGPGLVKPSETLSLTCTVSGGSVSSGDYYWTWIRQSPGKGLEWIGHIYYSGNTNYNPSLKSRLTISIDTSKTQFSLKLSSVTAADTAIYYCVRDRVTGAFDIWGQGTMVTVSSGGGGSGGGGSGGGGSGGGGSDIQMTQSPSSLSASVGDRVTITCQASQDISNYLNWYQQKPGKAPKLLIYDASNLETGVPSRFSGSGSGTDFTFTISSLQPEDIATYFCQHFDHLPLAFGGGTKVEIKGGGGSGGGGSGGGGSGGGGSEIVVTQSPATLSVSPGERATLSCRSSTGAVTTSNYANWVQQKPGQAPRGLIGGANKRAPGVPARFSGSLSGDEATLTISSLQSEDFAVYYCALWYSNLWVFGQGTKLEIKRTVAAPSVFIFPPSDEQLKSGTASVVCLLNNFYPREAKVQWKVDNALQSGNSQESVTEQDSKDSTYSLSSTLTLSKADYEKHKVYACEVTHQGLSSPVTKSFNRGECPPCPAPEAAGAPSVFLFPPKPKDTLMISRTPEVTCVVVDVSHEDPEVKFNWYVDGVEVHNAKTKPREEQYNSTYRVVSVLTVLHQDWLNGKEYKCKVSNKALPAPIEKTISKAKGQPREPQVYTLPPSRDELTKNQVSLLCLVKGFYPSDIAVEWESNGQPENNYKTTPPVLDSDGSFFLHSKLTVDKSRWQQGNVFSCSVMHEALHNHYTQKSLSLSPGK
As for B4, the concentration for a half-maximal effect (EC50) amounted to 0.0106 µg/mL in the test with Recombinant human EGFR [5] and 0.462 µg/mL with Human CD3 protein [6].

B5: 1.4.3M-Pa-Noncleavable (antibody)
chain 1: QDGNEEMGGIGGGSQDGNEEMGGGGGSGGGSGGSEVQLVESGGGLVQPGGSLRLSCAASGFTFNTYAMNWVRQAPGKGLEWVARIRSKYNNYATYYADSVKGRFTISRDDSKNTLYLQMNSLRAEDTAVYYCARHGNFGSSYVSYFAYWGQGTTVTVSSGGGSSGGGGSGGGGSQVQLQESGPGLVKPSETLSLTCTVSGGSVSSGDYYWTWIRQSPGKGLEWIGHIYYSGNTNYNPSLKSRLTISIDTSKTQFSLKLSSVTAADTAIYYCVRDRVTGAFDIWGQGTMVTVSSASTKGPSVFPLAPSSKSTSGGTAALGCLVKDYFPEPVTVSWNSGALTSGVHTFPAVLQSSGLYSLSSVVTVPSSSLGTQTYICNVNHKPSNTKVDKKVEPKSCPPCPAPEAAGGPSVFLFPPKPKDTLMISRTPEVTCVVVDVSHEDPEVKFNWYVDGVEVHNAKTKPREEQYNSTYRVVSVLTVLHQDWLNGKEYKCKVSNKALPAPIEKTISKAKGQPREPQVYTLPPSRDELTKNQVSLLCLVKGFYPSDIAVEWESNGQPENNYKTTPPVLDSDGSFFLHSKLTVDKSRWQQGNVFSCSVMHEALHNHYTQKSLSLSPGK
chain 2: not shown
In the case of B5, the EC50 in the test with Recombinant human EGFR [7] is 0.255 µg/mL; with Human CD3 protein [8] it was 7.43 µg/mL.
